Patent US20180282412A1

Assays:
[1] = target: PD-1-Fc fusion protein (extracellular region of human PD-1 fused to human Fc) (human); test: SPR (Biacore), PD-1-Fc immobilized, antibody as analyte
[2] = target: PD-1-Fc fusion protein (extracellular region of human PD-1 fused to human Fc) (human); test: ELISA on coated PD-1-Fc, HRP anti-human kappa

Chain of PD-1-Fc fusion protein (extracellular region of human PD-1 fused to human Fc) (human) (chain, as listed by the source limits assumed): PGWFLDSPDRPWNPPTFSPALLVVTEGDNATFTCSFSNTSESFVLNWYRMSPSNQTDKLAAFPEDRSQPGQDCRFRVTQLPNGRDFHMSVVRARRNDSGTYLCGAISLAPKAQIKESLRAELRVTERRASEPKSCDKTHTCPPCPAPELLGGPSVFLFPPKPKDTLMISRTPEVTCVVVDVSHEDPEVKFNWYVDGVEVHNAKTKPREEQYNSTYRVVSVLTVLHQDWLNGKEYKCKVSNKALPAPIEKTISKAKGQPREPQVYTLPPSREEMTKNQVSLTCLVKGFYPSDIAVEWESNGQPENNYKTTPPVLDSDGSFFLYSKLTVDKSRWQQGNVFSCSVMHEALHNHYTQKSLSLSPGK

- Kd [1]: 21.2 pM
- EC50 (read off the curve) [2]: 0.04 µg/mL
Substance: Nivolumab (antibody)
